Experimental data reported in patent US20070128190A1 (GLENMARK PHARMACEUTICALS S A, published 2007).
Where two headings read alike, the source gives them in different places.

Key:
[1] = target: T1, TMC-2206; experiment: fusion protein competing Eu-TMC-2206 off α2β1-coated plate
T1 construct: murine IgG1/κ secreted by hybridoma BHA2.1; labelled with Eu-N1-ITC where used as tracer; also called BHA2.1

[2] = target: T1, TMC-2206; experiment: as above; remark: listed apart in the source
[3] = target: T2, human platelet α2β1 integrin (immobilized on microtiter plates) (human, UniProt P17301 30-1181; P05556 21-798); experiment: competition with Eu-TMC-2206 on human platelet α2β1-coated plate
T2 construct: plates custom-coated with human platelet α2β1 by GTI Inc; also called immobilized α2β1 integrin; α2β1-coated plates
Description: (§1) Each labeled antibody mixture was applied to a separate PD-10 column (GE Biosciences, Piscataway, N.J.) pre-equilibrated with Running Buffer (50 mM Tris, pH 7.4 and 138 mM NaCl). Fractions (0.5 mL) were collected and assayed for total protein (Bradford reagent; Bio-Rad Laboratories, Hercules, Calif.) using a SpectraMax 384 absorbance plate reader and for europium after 1:10.000 dilution in DELFIA Enhancement Solution (Perkin-Elmer) by time-resolved fluorescence (TRF) using a Victor2 multi-label plate reader (Perkin Elmer). The fractions that were positive for both protein and Eu label were pooled and applied to new PD-10 columns and samples collected and assayed for total protein and for europium content by TRF calibrated against a europium standard solution (Perkin-Elmer) to calculate the fluor: protein ratio. […] After incubating the sealed plates for 1 hr at 37° C. to allow binding to reach equilibrium, 2 μL samples were transferred from each well into a fresh well containing DELFIA Enhancement Solution (100 μL/well; Perkin-Elmer) for the measurement of free (unbound) label. Enhancement Solution (100 μL/well) was added to the emptied wells for the measurement of bound label. The plate was shaken (Titer Plate Shaker speed setting of 5 for 5 minutes at room temperature) and time-resolved fluorescent (TRF) intensities were read using a Victor2 multi-label plate reader (Perkin-Elmer Wallac, Boston, Mas.).

[4] = target: T3, human α2 integrin with endogenous hamster β1 on CHO cells (human; hamster); experiment: cell-based or functional assay
[5] = target: T2, human platelet α2β1 integrin …; experiment: competition with Eu-TMC-2206 on human platelet α2β1-coated plate; remark: listed apart in the source
Description: as §1

[6] = target: T2, human platelet α2β1 integrin …; experiment: as above; remark: listed apart in the source
[7] = target: T4, Humanized TMC-2206 (hIgG4/κ VH12.0/VL10.0Q); experiment: fusion protein competing Eu-humanized TMC-2206 off α2β1-coated plates
T4 construct: labelled with Eu or Alexa-488 in some assays
Source text: The inhibition curves were fitted with the “one site competition” model using Prism software (GraphPad, Inc.) to obtain IC₅₀ values and to calculate the Kᵢ using the equation of Cheng and Prusoff (1973) and the respective values for KD from above.
The cloning of the human, rhesus macaque, rat, and mouse α2 I domains were described in Example 12. Cynomolgus and additional rhesus monkey α2 I domains were cloned from cDNA derived from total RNA extracted from skin tissue (MediCorp, Inc., Montreal, QC).

[8] = target: T3, human α2 integrin with endogenous …; experiment: cell-based or functional assay; remark: listed apart in the source
[9] = target: T2, human platelet α2β1 integrin …; experiment: competition with Eu-TMC-2206 on human platelet α2β1-coated plate; remark: listed apart in the source
Description: Exemplary IgG1 antibodies have a hVH 14.0 γ heavy chain (SEQ ID NO:181) or a hVH12.0 γ1 heavy chain (SEQ ID NO:182) and a hVL10.0Q light chain (SEQ ID NO:178). Exemplary IgG4 antibodies have a hVH14.0 γ4 heavy chain (SEQ ID NO:174) or a hVH12.0 γ4 heavy chain (SEQ ID NO:176) and a hVL 10.0Q light chain (SEQ ID NO:178). Purified antibodies were tested in the competition assay to compare potency by Kᵢ values as well as in the cell adhesion to collagen assay, where potency is measured as EC₅₀ values.

B1: GST-hα2 I domain E195W (other)
chain: GSSPDFQLSASFSPATQPCPSLIDVVVVCDESNSIYPWDAVKNFLEKFVQGLDIGPTKTQVGLIQYANNPRVVFNLNTYKTKEEMIVATSQTSQYGGDLTNTFGAIQYARKYAYSAASGGRRSATKVMVVVTDGESHDGSMLKAVIDQCNHDNILRFGIAVLGYLNRNALDTKNLIKEIKAIASIPTERYFFNVSDWAALLEKAGTLGEQIFSIEGTVEFIVTD
notes: same construct as m41; reported to lock the I domain in the open conformation; not shown: GST carrier with the pGEX-2TK vector linker at the N end
In the case of B1, the “fold decrease in Ki values” [1] is reported as 45 fold and the Ki [2] is reported as 12.8 nM.

B2: GST-hα2 I domain R165D (other)
chain: GSSPDFQLSASFSPATQPCPSLIDVVVVCDESNSIYPWDAVKNFLEKFVQGLDIGPTKTQVGLIQYANNPRVVFNLNTYKTKEEMIVATSQTSQYGGDLTNTFGAIQYARKYAYSAASGGRRSATKVMVVVTDGESHDGSMLKAVIDQCNHDNILRFGIAVLGYLNDNALDTKNLIKEIKAIASIPTERYFFNVSDEAALLEKAGTLGEQIFSIEGTVEFIVTD
notes: same construct as m41; not shown: GST carrier with the pGEX-2TK vector linker at the N end
B2 was tested, and the Ki [2] was 1990 nM.

B3: GST-hα2 I domain N73D (other)
chain: GSSPDFQLSASFSPATQPCPSLIDVVVVCDESNSIYPWDAVKNFLEKFVQGLDIGPTKTQVGLIQYANNPRVVFDLNTYKTKEEMIVATSQTSQYGGDLTNTFGAIQYARKYAYSAASGGRRSATKVMVVVTDGESHDGSMLKAVIDQCNHDNILRFGIAVLGYLNRNALDTKNLIKEIKAIASIPTERYFFNVSDEAALLEKAGTLGEQIFSIEGTVEFIVTD
notes: as for B2
B3 was tested, and the “fold decrease in Ki values” [1] was 7.8 fold and the Ki [2] was 2.17 nM.

B4: GST-hα2 I domain Q89H (other)
chain: GSSPDFQLSASFSPATQPCPSLIDVVVVCDESNSIYPWDAVKNFLEKFVQGLDIGPTKTQVGLIQYANNPRVVFNLNTYKTKEEMIVATSHTSQYGGDLTNTFGAIQYARKYAYSAASGGRRSATKVMVVVTDGESHDGSMLKAVIDQCNHDNILRFGIAVLGYLNRNALDTKNLIKEIKAIASIPTERYFFNVSDEAALLEKAGTLGEQIFSIEGTVEFIVTD
notes: as for B2
B4 was tested, and the “fold decrease in Ki values” [1] was 15.9 fold and the Ki [2] was 4.46 nM.

B5: humanized TMC-2206 variant hVH1.0/hVL1.0 (antibody, human IgG1, V domains shown)
VH: QVQLQESGPGLVKPSETLSLTCTVSGFSLTNYGIHWVRQPPGKGLEWLGVIWARGFTNYNSALMSRLTISKDNSKNQVSLKLSSVTAADTAVYFCARANDGVYYAMDYWGQGTLVTVSS
VL: QFVLTQSPAFLSVTPGEKVTITCSANSSVNYIHWYQQKPDQAPKKWIYDTSKLASGVPSRFSGSGSGTDYTFTISSLEAEDAATYYCQQWTTNPLTFGQGTKVEIK
notes: human IgG1/κ constant regions; also called humanized prototype; first humanized prototype
For B5, the Ki [3] was 0.27 nM, the “EC50, inhibition of cell adhesion to collagen” value [4] was 1.5 nM and the Ki [5] was 0.33 nM. The Ki [6] was 0.32 nM.

B6: humanized TMC-2206 variant hVH9.0, hVL1.0 (antibody, human IgG1, V domains shown)
VH: QVQLQESGPGLVKPSETLSLTCTVSGFSLTNYGIHWVRQPPGKGLEWIGVIWARGFTNYNSALMSRLTISVDNSKNQVSLKLSSVTAADTAVYFCARANDGVYYAMDYWGQGTLVTVSS
VL: QFVLTQSPAFLSVTPGEKVTITCSANSSVNYIHWYQQKPDQAPKKWIYDTSKLASGVPSRFSGSGSGTDYTFTISSLEAEDAATYYCQQWTTNPLTFGQGTKVEIK
notes: human IgG1/κ constant regions
With B6 the “fold decrease (Ki)” value [6] was 6.4 fold.

B7: humanized TMC-2206 variant hVH11.0, hVL1.0 (antibody, human IgG1, V domains shown)
VH: QVQLQESGPGLVKPSETLSLTCTVSGFSLTNYGIHWVRQPPGKGLEWIGVIWARGFTNYNSALMSRLTISKDNSKNQFSLKLSSVTAADTAVYFCARANDGVYYAMDYWGQGTLVTVSS
VL: QFVLTQSPAFLSVTPGEKVTITCSANSSVNYIHWYQQKPDQAPKKWIYDTSKLASGVPSRFSGSGSGTDYTFTISSLEAEDAATYYCQQWTTNPLTFGQGTKVEIK
notes: human IgG1/κ constant regions
B7 was tested, and the “fold decrease in potency compared to the hVH1.0, hVL1.0 variant (Ki)” value [6] was 70 fold.

B8: humanized TMC-2206 variant hVH10.0/hVL1.0 (antibody, V domains shown)
VH: QVQLQESGPGLVKPSETLSLTCTVSGFSLTNYGIHWVRQPPGKGLEWLGVIWARGFTNYNSALMSRLTISKDTSKNQVSLKLSSVTAADTAVYFCARANDGVYYAMDYWGQGTLVTVSS
VL: QFVLTQSPAFLSVTPGEKVTITCSANSSVNYIHWYQQKPDQAPKKWIYDTSKLASGVPSRFSGSGSGTDYTFTISSLEAEDAATYYCQQWTTNPLTFGQGTKVEIK
notes: human IgG1/κ; also called change to Thr-H73
For B8, the “fold decrease as measured by Ki” value [6] was 1.6 fold.

B9: GST-cynomolgus α2 I domain fusion protein of Example 18 (sequence identical to the human I domain) (other)
chain: SPDFQLSASFSPATQPCPSLIDVVVVCDESNSIYPWDAVKNFLEKFVQGLDIGPTKTQVGLIQYANNPRVVFNLNTYKTKEEMIVATSQTSQYGGDLTNTFGAIQYARKYAYSAASGGRRSATKVMVVVTDGESHDGSMLKAVIDQCNHDNILRFGIAVLGYLNRNALDTKNLIKEIKAIASIPTERYFFNVSDEAALLEKAGTLGEQIFSIEGTV
notes: also called GST-cynomolgous-α2 I domain fusion protein; not shown: glutathione S-transferase tag, vector not restated
For B9, the Ki [7] was 0.47 nM.

B10: humanized TMC-2206 variant hIgG1/κ VH12.0/VL10.0Q (antibody)
heavy: not shown
light: DFVMTQSPAFLSVTPGEKVTITCSAQSSVNYIHWYQQKPDQAPKKLIYDTSKLASGVPSRFSGSGSGTDYTFTISSLEAEDAATYYCQQWTTNPLTFGQGTKVEIKRTVAAPSVFIFPPSDEQLKSGTASVVCLLNNFYPREAKVQWKVDNALQSGNSQESVTEQDSKDSTYSLSSTLTLSKADYEKHKVYACEVTHQGLSSPVTKSFNRGEC
notes: hVH12.0 γ1 heavy chain and hVL10.0Q light chain; also called VH 12.0 VL 10.0Q (IgG1)
B10 was tested, and the Ki [3] was 0.31 nM, the “EC50 (nM), cell adhesion to collagen assay” value [8] was 2.2 nM and the Ki [9] was 0.27 nM.

B11: humanized TMC-2206 variant hIgG4/κ VH14.0/VL10.0Q (antibody)
heavy: not shown
light: DFVMTQSPAFLSVTPGEKVTITCSAQSSVNYIHWYQQKPDQAPKKLIYDTSKLASGVPSRFSGSGSGTDYTFTISSLEAEDAATYYCQQWTTNPLTFGQGTKVEIKRTVAAPSVFIFPPSDEQLKSGTASVVCLLNNFYPREAKVQWKVDNALQSGNSQESVTEQDSKDSTYSLSSTLTLSKADYEKHKVYACEVTHQGLSSPVTKSFNRGEC
notes: hVH14.0 γ4 heavy chain and hVL10.0Q light chain
Binder B11 has a Ki [9] of 0.36 nM.

B12: humanized TMC-2206 variant hIgG1/κ VH14.0/VL10.0Q (antibody)
heavy: not shown
light: DFVMTQSPAFLSVTPGEKVTITCSAQSSVNYIHWYQQKPDQAPKKLIYDTSKLASGVPSRFSGSGSGTDYTFTISSLEAEDAATYYCQQWTTNPLTFGQGTKVEIKRTVAAPSVFIFPPSDEQLKSGTASVVCLLNNFYPREAKVQWKVDNALQSGNSQESVTEQDSKDSTYSLSSTLTLSKADYEKHKVYACEVTHQGLSSPVTKSFNRGEC
notes: hVH14.0 γ1 heavy chain and hVL10.0Q light chain; also called VH 14.0 VL 10.0Q (IgG1)
In the case of B12, the Ki [3] is reported as 0.29 nM, the “EC50 (nM), cell adhesion to collagen assay” value [8] is reported as 1.3 nM and the Ki [9] is reported as 0.24 nM.
